How the values were obtained:
[1] = target: T1, human CD8 alpha (CD8A) on primary human CD8+ T cells (human, UniProt P01732 22-235); assay: flow cytometry, human CD8+ T cells, 0.2 uM
T1 construct: whole, on cells
Procedure: (§1) Binding of the 190 ELISA hits to human and cynomologous monkey primary CD8 T cells was assessed by flow cytometry. The FN3 domain molecules were diluted to 2 μM and 0.2 μM in PBS and incubated with human or cynomologous monkey CD8+ T cells in 96-well format. After 1 hour at 4° C., the cells were washed once with PBS and then resuspended with an anti-FN3 domain antibody (PAB25) solution. Following this incubation, the cells were washed twice with PBS and a PE conjugated secondary antibody and a viability dye were added. Finally, cells were washed and resuspended in PBS for flow cytometric analysis using a BD Canto Instrument. Cells were gating on live cells and median fluorescence intensity of the bound Centyrins (PE channel) was calculated using Cytobank software.

[2] = target: T1, human CD8 alpha (CD8A) on primary human …; assay: flow cytometry, human CD8+ T cells, 2 uM
Procedure: as §1

[3] = target: T2, cynomolgus monkey CD8A on primary cynomolgus CD8+ T cells (cynomolgus monkey, UniProt P01732 23-235 (human entry)); assay: flow cytometry, cyno CD8+ T cells, 2 uM
T2 construct: also called Cyno CD8alpha
T2 sequence (P01732 other isoform, or with tags, fused parts or gaps limits assumed): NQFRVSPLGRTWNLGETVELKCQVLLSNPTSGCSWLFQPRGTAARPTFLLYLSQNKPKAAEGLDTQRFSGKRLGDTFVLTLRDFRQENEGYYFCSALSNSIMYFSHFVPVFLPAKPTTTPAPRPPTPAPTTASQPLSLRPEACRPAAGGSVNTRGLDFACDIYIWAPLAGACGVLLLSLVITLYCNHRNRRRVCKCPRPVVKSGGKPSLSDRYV
Procedure: as §1

[4] = target: T2, cynomolgus monkey CD8A on primary …; assay: flow cytometry, cyno CD8+ T cells, 0.2 uM
Procedure: as §1

T1 sequence (P01732 22-235): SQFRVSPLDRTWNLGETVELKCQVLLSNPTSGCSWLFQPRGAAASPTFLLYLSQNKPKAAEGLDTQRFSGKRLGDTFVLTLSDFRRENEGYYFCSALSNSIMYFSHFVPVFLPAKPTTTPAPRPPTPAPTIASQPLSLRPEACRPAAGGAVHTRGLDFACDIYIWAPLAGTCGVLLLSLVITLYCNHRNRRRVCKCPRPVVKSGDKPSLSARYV

Human T-cell Binding 0.2 uM (MFI) [1]: 219 MFI
Human T-cell Binding 2 uM (MFI) [2]: 341 MFI
Cyno T-cell Binding 2 uM (MFI) [3]: 337 MFI
Cyno T-cell Binding 0.2 uM (MFI) [4]: 336 MFI
B1: Tencon25-His (designed binder, not shown: small tags and cut ends)
chain: LPAPKNLVVSEVTEDSARLSWTAPDAAFDSFLIQYQESEKVGEAIVLTVPGSERSYDLTGLKPGTEYTVSIYGVKGGHRSNPLSAIFTT
notes: kd not given

From patent publication US20240301033A1 (published 2024)
